Assay results as given in US10172850B2, “Substituted diketopiperazine analogs for use as drug delivery agents” (MannKind Corporation, priority 2008, dated 2019).

How the values were obtained:
[1] = rat, in vivo
Description: (§4) Blood samples were taken on the day of dosing for each rat per group at pre-dose (0 minutes), 5, 20, 40, 60, and 120 minutes post dose. […] Body weights ranged from 214-250 grams.

[2] = Mean serum insulin concentrations in rats administered DKP and insulin powders (Example 5, FIG. 8); details: 20 minutes post dose; 1.4 mg insulin in saline; pulmonary liquid instillation (INS)
Description: as §4

[3] = Mean serum insulin levels and relative bioavailability of substituted DKP/insulin powders (Example 6, FIG. 10, Table 2)
From the text: (§1) For this study, substituted diketopiperazine/insulin powders were made each containing either (E)-3-(4-(3,6-dioxopiperazin-2-yl)butylcarbamoyl)-acrylic acid (Compound 3) and insulin; or (E)-3-(3-(3,6-dioxopiperazin-2-yl)propylcarbamoyl)-acrylic acid (Compound 4) and insulin; or (E)-3-(4-(5-isopropyl-(3,6-dioxopiperazin-2-yl)butylcarbamoyl)-acrylic acid (Compound 5) and insulin, and administered to each of 3 female Sprague Dawley rats per group via pulmonary insufflation.
(§2) The rats were divided into 5 groups as follows. Group 1 rats received a formulation containing Compound 3 with an 11.4% insulin content (Formulation 3) via pulmonary insufflation. Group 2 rats were administered a formulation Compound 3 with a 25% insulin content (Formulation 3) by pulmonary insufflation. Group 3 rats received a formulation of Compound 4 with an 11.4% insulin content (Formulation 4) by pulmonary insufflation. Group 4 rats received a formulation of Compound 5 with 11.4% insulin content by pulmonary insufflation. Group 5 rats received insulin (0.5 U/kg) via subcutaneous administration.
(§3) Blood samples were taken on the day of dosing for each rat per group before (0 minutes) and 10, 20, 40, and 60 minutes after administration of the formulations, except for the insulin control group (group 5), for which an additional sample was collected at 120 minutes after dosing. At each time point, approximately 10 μL of whole blood was collected from the lateral tail vein of rats in each group and analyzed for measurements of insulin and glucose concentrations.

[4] = Mean glucose levels in rats administered various substituted DKP/insulin powders (Example 6, FIG. 9); format: in vivo, female Sprague Dawley rats; details: insulin 0.5 U/kg subcutaneous, pre-dose 132 mg/dL
From the text: as §1, §2, §3

[5] = serum insulin, insulin 0.5 U/kg subcutaneous

Row | Molecule | insulin concentration [1] [μU/mL] | serum insulin concentration [2] [μU/mL] | serum insulin concentration ([3]; 20 minutes post dose, insulin by subcutaneous injection) [μU/mL] | BIOAVAILABILITY ([3]; insulin 0.5 U/kg subcutaneous (reference)) [%] | Tmax [3, 5] [min] | T½ [3, 5] [min] | blood glucose level ([4]; 40 minutes post dose) [mg/dL] | blood glucose level ([4]; 1 hour post dose) [mg/dL] | blood glucose level ([4]; 2 hours post dose) [mg/dL]
1 | O=C(O)/C=C/C(=O)NCCCC1NC(=O)C(CCCNC(=O)/C=C/C(=O)O)NC1=O (stereo not drawn) [Compound 2, (E)-3,6-bis[(N-carboxy-2-propenyl)-amidopropyl]-2,5-diketopiperazine] | 505 | – | – | – | – | – | – | – | –
2 | insulin | – | 6703 | 9360 | 100 | 20 | 9.18 | 43 | 42 | 34
